Results taken from paper PMC4641155 (Molecular Imaging and Biology, 2015).
Where “and” joins values, the source holds several entries; their conditions need not be identical. Identical values can stand only once. Like-named read-outs stand apart in the source and are kept apart here.

How the values were obtained:
[1] = system: COLO205 tumors
[2] = system: COLO205 cells; assay: Muse Annexin V & Dead Cell and Caspase 3/7 assays in irinotecan-treated cells; assay type: cell-based, human
[3] = system: COLO205 tumors; assay: Ex vivo histology of tumors: cleaved caspase-3 and TUNEL; assay type: in vivo, nude mice; details: irinotecan-treated tumors; three whole sections, ×400; n = 6; mean ± SEM
[4] = Bladder model fit of urinary excretion; assay type: in vivo, CD1−/− nude female mice; details: first-order fit of bladder plus excreted activity
Text: (§1) The human organ and body weight values from the standard adult male phantom taken into account are implemented in the internal dosimetry software (OLINDA/EXM v1.1) and are assumed to be constant across individuals. The body weight and organ masses for the individual mice were obtained post-mortem. For the bladder model, the fraction leaving the body via the urinary excretion system (f) and the biological half-life of the excretion (t1/2) were estimated by fitting a first-order linear system to the sum of activity in the bladder and the activity that had been excreted (calculated as total injected activity minus total body activity): y=f1−expln2/t1/2t

[5] = Human residence time estimates scaled from mouse μSPECT time-activity curves; assay type: in vivo, human (extrapolated from mouse); details: scaled from mouse μSPECT TACs, n = 3 non-purified, n = 6 purified
Text: (§2) Volumes of interest (VOIs) were manually drawn on the μSPECT-CT images using PMOD v3.3 (PMOD Technologies, Switzerland) to delineate the regions with distinct SPECT time-activity pattern: heart, liver, kidney, and urinary bladder, as well as whole-body. The average organ activity per volume was obtained from the co-registered μSPECT images and the non-decay corrected time activity curves (TACs) were extracted for each target organ. In order to relate the scanner units (counts/pixel) to radioactivity concentration (kilobecquerel per cubic centimeter), a scanner calibration factor was estimated by scanning a syringe with a known concentration of Tc-99m. TACs for each organ, as well as the TACs representing the activity in the remainder of the body, were fitted by a single exponential decaying function, which was then integrated to obtain the total number of disintegrations (residence time) within these regions. In order to predict human dosimetry using animal data, interspecies extrapolation is necessary. Thus, the residence times (R) were scaled to human values according to the following formula [21]: R/gorganmouse⋅kgTBweightmouse⋅gorgan/kgTBweighthuman=Rhuman
as §1

[6] = Projected human organ absorbed doses and effective dose (OLINDA/EXM); assay type: in vivo, human (extrapolated from mouse); details: OLINDA/EXM v1.1, adult male model, 2-h voiding, from mouse data
Text: as §2, §1
Projected human absorbed doses to various organs and the effective doses (ED) were then computed using the aforementioned dosimetry software (weighting factors from International Commission on Radiological Protection 60), with the human residence times as input, using the standard adult male model and the dynamic voiding bladder model (2-h voiding interval).

[7] = cited from earlier work
[8] = system: caspase-3/7; details: cited from earlier work
Text: Molecular imaging of cell death has gained interest in oncology for monitoring tumor response to cancer therapy. Radiolabeled annexin-V was the first cell death-specific probe to be evaluated clinically. The exposure of membrane aminophospholipids such as PS and PE in the extracellular milieu provides surrogate markers for detecting cell death. PE presents one of the most abundant targets in the membrane bilayer, only preceded by phosphatidylcholine. […] Other ...

[9] = Dynamic/static whole-body μSPECT-CT biodistribution in healthy mice; assay type: in vivo; details: female, CD1−/− nude, mouse, kidney, iv, 37 MBq, total radioactivity, 37 MBq i.v., 4 h p.i., mean ± SEM, n = 3 non-purified, n = 6 purified, read-out: renal activity (renal excretion)
[10] = In vivo tumor uptake by μSPECT-CT in COLO205 tumor-bearing mice; parameters: species or system nude mice; details: female, nude, mouse, bone marrow (lumbar vertebrae and sacrum), iv, 37 MBq, total radioactivity, lumbar vertebrae and sacrum, μSPECT 4 h p.i., 37 MBq i.v.
Experimental: Irinotecan was administered by intra-peritoneal (i.p.) injection (80 mg/kg) three times in 1 week every other day (n = 3).

CCc1c2c(nc3ccc(OC(=O)N4CCC(N5CCCCC5)CC4)cc13)-c1cc3c(c(=O)n1C2)COC(=O)[C@]3(O)CC [irinotecan]
overall toxicity with respect to body weight loss ([1]; 80 mg/kg irinotecan, data not shown): No overall toxicity | BLI signal change after treatment ([1]; bioluminescence imaging after vs before treatment, irinotecan 80 mg/kg i.p.): 0.75 ± 0.28 | tumor growth inhibition ([1]; day 5, irinotecan 80 mg/kg i.p. three times in 1 week, vs vehicle): 34.4 ± 6.9% | level of cell necrosis ([2]; irinotecan 0.43, 4.3, 43 μM, 40 h, Muse assays): did not result in an increased level of cell necrosis | apoptosis levels ([2]; irinotecan treatment 40 h, annexin-V binding and effector caspase activation): increase in apoptosis levels | number of CC3-positive cells [3]: 9.5 ± 1.1 | number of TUNEL-positive cells [3]: 10.5 ± 1.6

CC(C)[C@@H]1NC(=O)[C@H](Cc2ccccc2)NC(=O)[C@@H]2NC(=O)[C@H](Cc3ccccc3)NC(=O)[C@@H]3CCCN3C(=O)CNC(=O)[C@H](Cc3ccccc3)NC(=O)[C@@H]3CNCCCC[C@@H](C(=O)O)NC(=O)[C@@H]4NC(=O)[C@H](CC(N)=O)NC(=O)CNC(=O)[C@H]([C@@H](O)C(=O)O)NC(=O)[C@H](CSC[C@@H](NC(=O)[C@H](CCC(N)=O)NC(=O)[C@H](CCCCNC(=O)c5ccc(NN)nc5)NC(=O)[C@@H](N)CS[C@H]4C)C(=O)N[C@@H](CS[C@H]2C)C(=O)N3)NC1=O [non-purified [^99mTc]duramycin] [metal not drawn]
f, mean fraction leaving the body via the urinary excretion system [4]: 0.519 | t 1/2, mean biological half-life of the excretion [4]: 2.950 h | Mean human residence time, heart contents [5]: 0.0244 h | Mean human residence time, kidneys [5]: 0.13 h | Mean human residence time, liver [5]: 1.02 h | Mean human residence time, remaining body [5]: 3.41 h | Mean human residence time, urinary bladder contents [5]: 0.369 h | Mean human absorbed dose, total body [6]: 2.52 × 10^−3 mGy/MBq | Mean human organ absorbed dose, LLI wall [6]: 3.01 × 10^−3 mGy/MBq | Mean human organ absorbed dose, ULI wall [6]: 3.10 × 10^−3 mGy/MBq | Mean human organ absorbed dose, adrenals [6]: 3.90 × 10^−3 mGy/MBq | Mean human organ absorbed dose, brain [6]: 1.54 × 10^−3 mGy/MBq | Mean human organ absorbed dose, breasts [6]: 1.51 × 10^−3 mGy/MBq | Mean human organ absorbed dose, gallbladder wall [6]: 5.38 × 10^−3 mGy/MBq | Mean human organ absorbed dose, heart wall [6]: 3.12 × 10^−3 mGy/MBq | Mean human organ absorbed dose, kidneys [6]: 8.45 × 10^−3 mGy/MBq | Mean human organ absorbed dose, liver [6]: 1.27 × 10^−2 ± 5.97 × 10^−3 mGy/MBq and 1.27 × 10 ^−2 mGy/MBq | Mean human organ absorbed dose, lungs [6]: 2.52 × 10^−3 mGy/MBq | Mean human organ absorbed dose, muscle [6]: 2.12 × 10^−3 mGy/MBq | Mean human organ absorbed dose, osteogenic cells [6]: 5.51 × 10^−3 mGy/MBq | Mean human organ absorbed dose, ovaries [6]: 3.15 × 10^−3 mGy/MBq | Mean human organ absorbed dose, pancreas [6]: 3.79 × 10^−3 mGy/MBq | Mean human organ absorbed dose, red marrow [6]: 2.16 × 10^−3 mGy/MBq | Mean human organ absorbed dose, skin [6]: 1.34 × 10^−3 mGy/MBq | Mean human organ absorbed dose, small intestine [6]: 3.01 × 10^−3 mGy/MBq | Mean human organ absorbed dose, spleen [6]: 2.48 × 10^−3 mGy/MBq | Mean human organ absorbed dose, stomach wall [6]: 2.63 × 10^−3 mGy/MBq | Mean human organ absorbed dose, testes [6]: 2.11 × 10^−3 mGy/MBq | Mean human organ absorbed dose, thymus [6]: 2.03 × 10^−3 mGy/MBq | Mean human organ absorbed dose, thyroid [6]: 1.87 × 10^−3 mGy/MBq | Mean human organ absorbed dose, urinary bladder wall [6]: 1.66 × 10^−2 ± 4.55 × 10^−3 mGy/MBq and 1.66 × 10 ^−2 mGy/MBq | Mean human organ absorbed dose, uterus [6]: 4.05 × 10^−3 mGy/MBq

[^99mTc]HYNIC-annexin V: radiolabeled human recombinant annexin V, apoptosis imaging agent
mean effective dose ([7]; in vivo): 0.011 mSv/MBq

O=C1C(=O)N(Cc2cn(CC[18F])nn2)c2ccc(S(=O)(=O)N3CCCC3COc3ccc(F)cc3F)cc21 (stereo not drawn) [[^18F]ICMT11]
mean effective dose [7]: 0.025 mSv/MBq | binding affinity for caspase-3/7 [8]: nanomolar

CC(C)[C@@H]1NC(=O)[C@H](Cc2ccccc2)NC(=O)[C@@H]2NC(=O)[C@H](Cc3ccccc3)NC(=O)[C@@H]3CCCN3C(=O)CNC(=O)[C@H](Cc3ccccc3)NC(=O)[C@@H]3CNCCCC[C@@H](C(=O)O)NC(=O)[C@@H]4NC(=O)[C@H](CC(N)=O)NC(=O)CNC(=O)[C@H]([C@@H](O)C(=O)O)NC(=O)[C@H](CSC[C@@H](NC(=O)[C@H](CCC(N)=O)NC(=O)[C@H](CCCCNC(=O)c5ccc(NN)nc5)NC(=O)[C@@H](N)CS[C@H]4C)C(=O)N[C@@H](CS[C@H]2C)C(=O)N3)NC1=O [purified [^99mTc]duramycin, metal not drawn]
tissue uptake per volume at 4 h [9]: 6.82 ± 0.41 %ID/mL | SUV at 4 h ([10]; irinotecan-treated mice): 0.12 ± 0.02 SUV | SUV at 4 h ([10]; vehicle-treated mice): 0.11 ± 0.01 SUV
